Test [1] deals with T1, Pfs48/45 full-length ectodomain (Plasmodium falciparum, UniProt Q8I6T1 27-427).
T1 chain: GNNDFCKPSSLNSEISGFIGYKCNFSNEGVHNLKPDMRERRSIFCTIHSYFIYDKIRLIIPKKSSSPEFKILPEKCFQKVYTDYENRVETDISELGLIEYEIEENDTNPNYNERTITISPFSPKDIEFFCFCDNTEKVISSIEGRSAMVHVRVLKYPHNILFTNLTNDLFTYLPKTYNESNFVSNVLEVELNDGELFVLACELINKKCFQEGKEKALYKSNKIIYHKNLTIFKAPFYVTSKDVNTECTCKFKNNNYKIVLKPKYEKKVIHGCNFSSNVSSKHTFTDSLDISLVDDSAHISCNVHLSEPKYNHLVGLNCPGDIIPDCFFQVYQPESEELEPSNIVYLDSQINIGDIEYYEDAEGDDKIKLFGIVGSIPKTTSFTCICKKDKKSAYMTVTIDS
The experiment in a line: SPR.

For test [2], the target named is T1, Pfs48/45 full-length ectodomain. As to the kind of experiment: SPR.

B1: 85RF45.1 monoclonal antibody (antibody, V domains shown)
VH: EVQLVESGGGLLQPGRSLKLSCVASGFTFNNYWMSWIRQAPGKGLEWIASISNIGGTIYYPDSVKGRFTISRDSAQNTLYLQMNSLRSEDTATYYCTRDLRMSDYFDYWGQGVMVTVSS
VL: QFVLSQPNSVSTNLGSTVKLSCKRSTGNIGSNYVSWYQHHEGRSPTTMIYRDDQRPDGVPDRFSGSIDRSSNSALLTIDNVQTEDEAAYFCHSYSTGMYIFGGGTKLTVL
Turning to B1, in test [1], binding was characterised by a dissociation constant (Kd) of 1.34 nM.

B2: 10D8 monoclonal antibody (antibody, V domains shown)
VH: EVMLVESGGDLVKPGGSLKVSCAASGFTFSNYAMSWVRQTPEKRLEWVATISSGASYTHYPDSVKGRFTISRDNAKNTLYLQMSSLRSEDTAMYYCGRQVNRHDRALDAMDYWGQGTSVTVSP
VL: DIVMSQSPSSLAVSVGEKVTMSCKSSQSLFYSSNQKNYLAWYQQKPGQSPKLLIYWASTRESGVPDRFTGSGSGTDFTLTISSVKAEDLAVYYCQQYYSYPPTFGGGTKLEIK
B2 registered a koff in test [2] of 0.0027 s⁻¹. Further, the Kd in test [1] stood at 35.8 nM.

B3: 32F3 monoclonal antibody (antibody, V domains shown)
VH: DVKLVESGGGLVKLGGSLKLSCAASGFTFSSYYMSWVRQTPEKRLELVAAINNNGGSTYYPDTVKGRFTISRDNAKNTLNLQMNSLKSEDTALYYCTRQHYGNLYFFDYWGQGTTLTVSS
VL: QIVLSQSPAILSASPGEKVTMTCRASSSVTYIHWYQQKPGSSPKPWIQATSSLASGVPARFSGSGSGTSYSLSISRVEAEDAATYYCQQWSSNPLTFGAGTKLELK
As to B3, the koff in test [2] came to 0.000121 s⁻¹. In test [1], this molecule gave a Kd of 4.1 nM.

For the origin of these results see article PMC9509318 (2022).
